Measurements reported in US11623951B2, “Antibodies to R-spondin 3” (National Health Research Institutes, priority 2017, dated 2023).
Values joined by “and” are separate entries in the source; they are usually repeats but may differ in a detail not shown here. Identical values can stand only once.

T1: RSPO3 (Homo sapiens, UniProt Q9BXY4)
T1 sequence (Q9BXY4 22-272): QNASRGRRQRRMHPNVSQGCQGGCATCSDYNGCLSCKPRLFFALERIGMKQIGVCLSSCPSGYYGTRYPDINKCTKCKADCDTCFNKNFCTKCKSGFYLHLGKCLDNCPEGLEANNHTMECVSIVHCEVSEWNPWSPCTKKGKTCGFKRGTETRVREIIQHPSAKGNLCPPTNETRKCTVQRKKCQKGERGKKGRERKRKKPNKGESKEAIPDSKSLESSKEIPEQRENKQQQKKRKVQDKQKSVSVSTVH


What was measured:
[1] = tested on: human SNU-1411 colon xenograft tumor; assay: SNU-1411 colon xenograft tumor carrying PTPRK(e13)-RSPO3(e2) fusion transcript; assay type: in vivo, mice
Method: FIG. 15 is a set of graphs showing anti-tumor efficacy of in human SNU-1411 colon xenograft tumor carrying PTPRK(e13)-RSPO3(e2) fusion transcript. Tumor cells were injected into the mice and treatments were initiated when the tumors reaches 200 mm^3. Antibodies were given at 25 mg/kg once every other week (Q2W) and paclitaxel at 20 mg/kg once every week (Q1W). Both antibodies and […] were administered by intravenous injection. Paclitaxel was given from day 1 to day 32 and combination groups from day 1 to day 46. Both antibodies and paclitaxel were administered by intravenous injection. For each treatment cycle, antibodies were given on day 1 and paclitaxel on day 3. Tumor and body weight measurements were taken on the indicated days. Mean±SEM. *: p<0.05 vs. control mAb by one-way ANOVA followed by Tukey's post-test comparison.
To determine the effect of antibodies on SNU-1411 xenograft tumor, tumor-bearing animals were randomized and treatment began when mean tumor volumes reached approximately 150-200 mm^3. Antibodies were given once every other week (Q2W) and paclitaxel was administered once a week (Q1W). Both antibody and paclitaxel were administered intravenously. Tumor growth was measured twice a week by an electronic caliper. Tumor volumes were calculated with the formula (L×W^2)/2, where L was the longest and W was the shortest axis of the tumor. Animal weights were recorded once a week. Mice were examined frequently for overt signs of any adverse drug-related side effects. At the end of the study, all the mice were euthanized.

[2] = tested on: RSPO3-Wnt signaling (hRSPO3), MDA-MB436 TCF/LEF-Luc cells; assay: TCF/LEF-Luc WNT reporter assay in MDA-MB436 cells stimulated by Wnt3a plus human RSPO3; assay type: cell-based; conditions: MDA-MB436 reporter cell line
Method: FIG. 4 is a set of graphs showing RSPO3 Abs targeting the canonical Wnt signaling and in vitro testing for inhibition of β-catenin activity. (A) A1, A2, A4, A5, A6, and A9 clones; (B) B1, B3, B4, B8, and B9 clones; and (C) Dose-response effect of elevated A4 and A6 clones on RSPO-Wnt signaling. MDA-MB436 TCF/LEF-Luc cells were incubated with a combination of Wnt3a (20 ng/mL) and RSPO3 (50 ng/mL) in the presence of 20 μg/mL anti-RSPO3 antibodies clone A1, A2, A4, A5, A6, A9 or 131R002. As controls, cells were incubated with a combination of Wnt3a and RSPO3, Wnt3a only, RSPO3 only, or with no addition. The cells were incubated for 16 hours and the luciferase activity assay was performed using One-Glo Luciferase Assay System.
FIG. 6 is a set of graph showing that anti-RSPO3 Ab inhibits WNT reporter activity stimulated by combination of Wnt3a and RSPO3. […] The cells were incubated for 16 hours. The luciferase activity assay was performed using One-Glo Luciferase Assay System.
Wnt signaling leads to β-catenin/TCF dependent transcriptional responses. MDA-MB436-TCF/LEF-Luc cells, a gift from Dr. Kelvin Kun-Chih Tsai, were employed to monitor the activity of Wnt signal transduction pathways. See, e.g., Wang et al. (2013). Gastroenterology (145): 1110-1120. In brief, MDA-MB436-TCF/LEF-Luc cells were seeded in black flat bottom 96 well culture plates (Costar) in RSPO Medium supplemented with 10% FBS and incubated overnight at 37° C., 5% CO2. 24 hours after incubation, cells were treated with anti-RSPO3 ab, 20 ng/ml WNT3a (R&D system) and RSPO ligands (Peprotech Systems) where appropriate and further incubated for 16 hours. Luciferase activity was measured using Bright-Glo Luciferase Assay System (Promega).

RSPO1, 2, 3, and 4 = assay: Antigen-binding ELISA, selectivity among RSPO1-4
Source text: FIG. 3 is a set of graphs showing Anti-RSPO3 hybridoma antibodies reactivity measured by ELISA. These hybridoma antibodies were reacted with RSPO1-4 antigen immunoblots, which reflect with the RSPO3 antigen. (A) A1, A2, A4, A5, A6, and A9 clones; and (B) B1, B3, B4, B8, and B9 clones.
To assess the RSPO-binding capability of antibodies, purified antibodies were reacted with RSPO1, 2, 3, and 4 on immunoblots. To perform antigen-binding ELISA assay, 96-well high binding polystyrene plates (Corning) were coated with 2 μg/ml of recombinant RSPO3 preparation in the capture buffer by overnight incubation at 4° C. Coated plates were washed twice with PBS supplemented with 0.05% Tween 20 (PBST). The plates were blocked with PBST—10% BSA and assayed with ELISA standard protocol for 1 h at room temperature.

RSPO3 = target: T1, RSPO3; assay: Octet (ForteBio) kinetic binding to biotinylated RSPO3; conditions: 30° C.
Method: The streptavidin-coated sensors were coated with 10 μg/ml of biotinylated RSPO3 as described in the handbook of ForteBio. Antibody concentrations were in the range of 0.75 and 93.8 nM. Quantitative kinetic binding analysis was performed with pH-adjusted PBS with 0.5% BSA. All steps were run at 30° C. with a continuous shaking speed at 1000 rpm.
To assess the RSPO3-binding affinities of the antibodies, kinetics assays were performed by the Octetsystems. The purified monoclonal antibodies (mAbs) from batch-A clones (A1, A4, A6, A9), along with the reference Ab-131R002, were examined for binding with RSPO-3.

[3] = tested on: hRSPO3 overlapping linear peptides; assay: PepSet ELISA epitope mapping with linear 10-mer peptides of RSPO3; assay type: binding, human; conditions: antibody 10 μg/ml
Source text: FIG. 8 is a set of graphs showing mapping of the α-RSPO3 Ab epitopes on RSPO3 protein by Pep-set. These histograms represent the ability of each 10-mer oligopeptide to bind the RSPO3 Abs 131R010(A), 131R002 (B), and hybridoma A6 (C) as indicated in the figure. QNASRGRRQR (SEQ ID NO: 74); ASRGRRQRRM (SEQ ID NO: 75); RGRRQRRMHP (SEQ ID NO: 84); RRQRRMHPNV (SEQ ID NO: 76); CLSCKPRLFF (SEQ ID NO: 77); SCKPRLFFAL (SEQ ID NO: 78); ERGKKGRERK (SEQ ID NO: 79); GKKGRERKRK (SEQ ID NO: 80); KGRERKRKKP (SEQ ID NO: 81); RERKRKKPNK (SEQ ID NO: 82); RENKQQQKKR (SEQ ID NO: 83).
ELISA for PepSet library was employed to determine α-RSPO3 hB1 antibodies and RSPO3 binding epitope. […] The colorimetric reaction were then stop by 2N HCL and the optical density at 450 nm of each well were determined immediately.
To identify the binding epitopes of α-RSPO3 Abs, an overlapping peptide library (10-mer for each peptide, offset: 2 amino acid residues, total number of peptides to cover the mature hRSPO3:122) derived from hRSPO3 amino sequences was prepared by Mimotope, Inc. The binding of α-RSPO3 mAbs to the overlapping peptides derived from hRSPO3 was measured. […] According to the epitope mapping results using linear peptides (FIG. 8 and Table 6), it was concluded that hB1 likely binds to a conformationlly-determined epitope on huRSPO3.

Molecule	Tumor volume on day 32 ([1]; antibodies 25 mg/kg Q2W, paclitaxel 20 mg/kg Q1W, i.v.)	Tumor volume on day 18 ([1]; antibodies 25 mg/kg Q2W, paclitaxel 20 mg/kg Q1W, i.v., mean±SEM)	Tumor volume on day 32 ([1]; antibodies 25 mg/kg Q2W, paclitaxel 20 mg/kg Q1W, i.v., listed as paclitaxel)	Tumor volume reduction, % of Control mAb ([1]; day 18)	dose-dependent inhibitory effect in TCF/LEF-Luc reporter [2]	selectivity in binding among RSPO1-4 in ELISA (RSPO1, 2, 3, and 4)	RMax (RSPO3)	kdis (RSPO3)	kon (RSPO3)	Signal (binding to linear RSPO3 peptides) [3]
CC(=O)O[C@H]1C(=O)[C@@]2(C)[C@H]([C@H](OC(=O)c3ccccc3)[C@]3(O)C[C@H](OC(=O)[C@H](O)[C@@H](NC(=O)c4ccccc4)c4ccccc4)C(C)=C1C3(C)C)[C@]1(OC(C)=O)CO[C@@H]1C[C@@H]2O [Paclitaxel, reference compound]	949 ± 105 mm^3	329 ± 59 mm^3	950 mm^3	69% and 69 ± 6* %						
B1: murine anti-RSPO3 mAb, IgG1; VH SEQ ID NO: 10, VL SEQ ID NO: 12 (antibody, V domains shown, Heavy chain variable region; Light chain variable region) VH: QIQLQESGPGLVKPSQSLSLTCSVTGYSITSGYYWNWIRQFPGNKLEWMGYISYDGTNNYNPSLKDRISITRDTSMNQFFLKLNSVTTEDTATYYCSVLLIQYFNIWGAGTTVTVSS VL: DIQMTQSPASLSASVGETVTITCRTSESVNNFLAWFHQKQGKSPQLLVYHAKTLADGVSSRFSGSGSGTQYSLKINSLQPEDFGNYYCQHFWSIPWTFGGGTKLEIKR					significantly inhibitory effect in a dose-dependent manner	only reacted with RSPO3				
A4: murine anti-RSPO3 mAb, IgG1; VH SEQ ID NO: 2, VL SEQ ID NO: 4 (antibody, V domains shown, heavy chain variable region; Light chain variable region) VH: QVQLQESGAELAKPGASVKMSCKASGHTLTYYWMHWVKQRPGQGLEWIGYIDPSTGYSEYNQRFEGKATLTADKSSGTVYMQLSSLTSEDSAVYYCARNGPFAYWGQGTLVTVSA VL: DNVLTQSPAIMSASPGEKVTMTCSASSSVNYMYWYQQKPGSSPRLLIYDTSKLASGVPVRFSGSGSGTSYSLTISRMEAEDAATYYCQQWSSSPLTFGVGAKLEIKR					significantly inhibitory effect in a dose-dependent manner	only reacted with RSPO3	0.3588	0.000884 s⁻¹	32700 M⁻¹ s⁻¹	neither the A4 nor the hB1 mAbs showed detectable binding signals
A6: murine anti-RSPO3 mAb, IgG2a; VH SEQ ID NO: 6, VL SEQ ID NO: 8 (antibody, V domains shown, Heavy chain variable region; Light chain variable region) VH: QVQLQQSGAEIVRSGASVKLSCTASGFSITEYYIHWVKQRPDQGLEWIGMIDPENGDTDYAPKFQGKATMTADTSSNTVNLQLSSLTSEDTAVYYCHGPGPLEYWGQGTTLTVSS VL: DIVMTQSPLSLPVSLGDQASISCRSSQSIVHSNGNTYLEWYLQKPGQSPNLLIYRVSNRFSGVPDRFNGSGSGTDFTLKISRVEPEDLGVYSCFQASHVPYTFGGGTKLEIKR					significantly inhibitory effect in a dose-dependent manner	only reacted with RSPO3	0.2151	0.0025 s⁻¹	241000 M⁻¹ s⁻¹	
